In US20220332758A1, “PEPTIDE-BASED COMPOSITIONS AND METHODS FOR TREATING ALZHEIMER'S DISEASE” (Board of Regents, The Universityof Texas System, priority 2019, published 2022):
Where no end group is shown, it is not given here. [ ]: non-standard residue; d: D form. Aib = CC(C)(N)C(=O)O

Molecular target: human housekeeping core (20S) proteasome purified from erythrocytes (human), P60900
Assay: cell-based or functional assay

Q: How did the AC50, ChT-L activity (Suc-LLVY-MCA) turn out when GRKKRRQ[Aib]GQRRKKRG [Tat5-8,9 Aib] was run?
A: 183 nM

Q: What about the Max activation fold, ChT-L activity of the same binder?
A: 8.9 fold
